# Patent US20130251728A1 (Regeneron, published 2013)
# T1: hGCGR-mmh (human)
# T1 construct: also called REGN547; monovalent hGCGR
# T1 chain: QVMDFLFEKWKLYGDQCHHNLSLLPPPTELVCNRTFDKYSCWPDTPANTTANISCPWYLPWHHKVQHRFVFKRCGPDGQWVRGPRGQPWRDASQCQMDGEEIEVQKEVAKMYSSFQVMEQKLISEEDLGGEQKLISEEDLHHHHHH
# T2: monkey (Macaca fascicularis) GCGR (full-length, on HEK293 reporter cells) (monkey (Macaca fascicularis), UniProt P47871 26-477 (human entry))
# T2 chain: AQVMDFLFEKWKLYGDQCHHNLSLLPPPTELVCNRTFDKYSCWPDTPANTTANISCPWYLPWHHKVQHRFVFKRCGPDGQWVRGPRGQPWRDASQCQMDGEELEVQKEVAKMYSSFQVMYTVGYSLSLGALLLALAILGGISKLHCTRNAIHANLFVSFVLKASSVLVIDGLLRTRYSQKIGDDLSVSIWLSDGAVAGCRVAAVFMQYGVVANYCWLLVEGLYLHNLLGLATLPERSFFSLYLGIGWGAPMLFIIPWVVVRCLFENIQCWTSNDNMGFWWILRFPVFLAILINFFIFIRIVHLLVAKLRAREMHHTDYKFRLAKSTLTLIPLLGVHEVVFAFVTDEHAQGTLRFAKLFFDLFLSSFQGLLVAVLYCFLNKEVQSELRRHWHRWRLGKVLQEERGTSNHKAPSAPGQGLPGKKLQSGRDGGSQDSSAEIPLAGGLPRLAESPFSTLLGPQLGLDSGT
# Assays:
# mfGCGR-hFc [1] = biological target: T3, mfGCGR-hFc (cynomolgus monkey (Macaca fascicularis)); assay: SPR Biacore T100, 37C, mAb captured, antigen flowed
# T3 construct: also called mfGCGR-N-terminal hFc
# T3 sequence (chain, as listed by the source limits assumed): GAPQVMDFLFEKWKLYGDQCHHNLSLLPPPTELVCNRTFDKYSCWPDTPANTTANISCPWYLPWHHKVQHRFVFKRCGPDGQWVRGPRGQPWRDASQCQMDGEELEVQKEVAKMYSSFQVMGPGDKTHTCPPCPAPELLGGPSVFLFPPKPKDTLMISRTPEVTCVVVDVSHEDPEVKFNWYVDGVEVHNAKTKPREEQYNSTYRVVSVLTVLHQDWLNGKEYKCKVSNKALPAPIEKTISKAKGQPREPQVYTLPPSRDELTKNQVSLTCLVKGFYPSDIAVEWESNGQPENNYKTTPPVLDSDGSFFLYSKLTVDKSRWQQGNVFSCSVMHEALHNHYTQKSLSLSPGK
# Procedure: (§1) Measurements were conducted on a T100 Biacore instrument. Antibodies were captured onto the Biacore sensor chip surface via a covalently-linked anti-human kappa antibody capture surface, and the soluble GCGR proteins were applied to the surface either in a monovalent (hGCGR expressed with a myc-myc-hexa-histidine C-terminal tag) or bivalent (hGCGR and MfGCGR expressed with an N-terminal Fc fusion) format.
# (§2) Binding dissociation equilibrium constants and dissociative half-lives were calculated from the kinetic rate constants as: KD=kd/kₐ; t_{1/2}=(In2/kd).
# hGCGR-hFc [2] = biological target: T4, hGCGR-hFc (human); assay: as above
# T4 construct: also called REGN316
# Procedure: as §1, §2
# hGCGR-mmh [3] = biological target: T1, hGCGR-mmh; assay: as above
# Procedure: as §1, §2
# mfGCGR-hFc [4] = biological target: T3, mfGCGR-hFc; assay: SPR Biacore T100, 25C, mAb captured, antigen flowed
# Procedure: as §1, §2
# hGCGR-hFc [5] = biological target: T4, hGCGR-hFc; assay: as above
# Procedure: as §1, §2
# hGCGR-mmh [6] = biological target: T1, hGCGR-mmh; assay: as above
# Procedure: as §1, §2
# [7] = biological target: mouse GCGR (full-length, on HEK293 reporter cells) (mouse, UniProt Q61606 27-485); assay: cell-based or functional assay
# Sequence of mouse GCGR (full-length, on HEK293 reporter cells) (Q61606 27-485 limits assumed): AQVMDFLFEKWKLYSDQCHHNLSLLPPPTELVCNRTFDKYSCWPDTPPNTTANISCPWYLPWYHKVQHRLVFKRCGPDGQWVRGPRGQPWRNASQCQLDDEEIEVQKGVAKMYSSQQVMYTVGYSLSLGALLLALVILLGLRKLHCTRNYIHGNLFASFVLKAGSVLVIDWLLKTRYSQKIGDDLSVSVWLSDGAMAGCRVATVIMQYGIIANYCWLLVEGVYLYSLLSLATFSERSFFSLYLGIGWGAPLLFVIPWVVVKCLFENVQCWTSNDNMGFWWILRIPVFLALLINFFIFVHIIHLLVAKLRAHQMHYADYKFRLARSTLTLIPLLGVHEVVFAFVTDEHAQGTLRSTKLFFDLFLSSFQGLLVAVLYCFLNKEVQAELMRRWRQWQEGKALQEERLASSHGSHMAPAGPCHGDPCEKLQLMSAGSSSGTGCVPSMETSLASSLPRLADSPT
# [8] = biological target: T2, monkey (Macaca fascicularis) GCGR …; assay: cell-based or functional assay
# [9] = biological target: human GCGR (full-length, on HEK293 reporter cells) (human, UniProt P47871 27-477); assay: cell-based or functional assay
# [10] = biological target: rat GCGR (full-length, on transiently transfected HEK293 reporter cells) (rat, UniProt P30082 27-485); assay: cell-based or functional assay
# Sequence of rat GCGR (full-length, on transiently transfected HEK293 reporter cells) (P30082 27-485 limits assumed): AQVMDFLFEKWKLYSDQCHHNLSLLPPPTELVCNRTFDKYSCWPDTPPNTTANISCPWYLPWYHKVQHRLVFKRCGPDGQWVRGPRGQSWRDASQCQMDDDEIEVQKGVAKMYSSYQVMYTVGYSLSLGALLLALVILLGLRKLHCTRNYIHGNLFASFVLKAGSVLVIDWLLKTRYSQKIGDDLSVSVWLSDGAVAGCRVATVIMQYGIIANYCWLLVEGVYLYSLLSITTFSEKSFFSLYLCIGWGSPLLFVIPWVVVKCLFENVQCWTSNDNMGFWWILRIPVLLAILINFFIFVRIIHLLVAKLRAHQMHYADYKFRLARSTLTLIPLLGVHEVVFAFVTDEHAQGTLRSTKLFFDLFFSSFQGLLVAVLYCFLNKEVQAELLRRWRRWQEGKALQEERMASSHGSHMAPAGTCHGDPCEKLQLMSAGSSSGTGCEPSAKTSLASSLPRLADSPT
Binder,Kd (mfGCGR-hFc [1]),T½ (mfGCGR-hFc [1]),koff (mfGCGR-hFc [1]),kon (mfGCGR-hFc [1]),Kd (hGCGR-hFc [2]),T½ (hGCGR-hFc [2]),koff (hGCGR-hFc [2]),kon (hGCGR-hFc [2]),Kd (hGCGR-mmh [3]),T½ (hGCGR-mmh [3]),koff (hGCGR-mmh [3]),kon (hGCGR-mmh [3]),Kd (mfGCGR-hFc [4]),T½ (mfGCGR-hFc [4]),koff (mfGCGR-hFc [4]),kon (mfGCGR-hFc [4]),Kd (hGCGR-hFc [5]),T½ (hGCGR-hFc [5]),koff (hGCGR-hFc [5]),kon (hGCGR-hFc [5]),other results
"H4H1327P (antibody, V domains shown, also called anti-GCGR (hIgG4) antibody designated H4H1327P) VH: EVQLVESGGGLVQPGGSLRLSCAASGFTFSNYLMNWVRQAPGKGLEWLANIQEDGIEKYYVDSVKGRFTISRDNAKNSLYLQMNSLRAEDTAVYYCAREPSHYDILTGYDYYYGMDVWGQGTTVTVS VL: DIQMTQSPSSLSASVGDRVTITCRASQGIRNDLGWYQQKPGKAPKRLIYAASSLQSGVPSRFSGSGSGTEFILTVSSLQPEDFATYYCLQYNSNPFTFGPGTKVDIK",35.7 pM,2.42 h,7.94e-05 s⁻¹,2.22e+06 M⁻¹ s⁻¹,157 pM,0.833 h,0.000232 s⁻¹,1.48e+06 M⁻¹ s⁻¹,1350 pM,0.1 h,0.002 s⁻¹,1.48e+06 M⁻¹ s⁻¹,9.02 pM,13.4 h,1.44e-05 s⁻¹,1.6e+06 M⁻¹ s⁻¹,33.8 pM,4.7 h,4.1e-05 s⁻¹,1.21e+06 M⁻¹ s⁻¹,"Kd (hGCGR-mmh [6]): 369 pM; T½ (hGCGR-mmh [6]): 0.55 h; koff (hGCGR-mmh [6]): 0.000352 s⁻¹; kon (hGCGR-mmh [6]): 952000 M⁻¹ s⁻¹; IC50, inhibition of 100 pM GCG-stimulated luciferase activity, mGCGR reporter cells [7]: 1.04 nM; IC50, inhibition of 100 pM GCG-stimulated luciferase activity, mfGCGR reporter cells [8]: 2.56 nM; IC50, inhibition of 100 pM GCG-stimulated luciferase activity, hGCGR reporter cells [9]: 0.39 nM; IC50, inhibition of 100 pM GCG-stimulated luciferase activity, rat GCGR reporter cells [10]: 0.88 nM"
"H4H1345N (antibody, V domains shown, Anti-GCGR antibody from hybridoma; the controls are called isotype-matched hIgG4) VH: QVQLVQSGADVKKPGASVKVSCKVSGHILTDLSMHWVRQPPGKGLEWMAGFDPEEGKIIYAQKFQGRVTMTEDTSTDTAYMELSSLRSGDTAVYYCATSDILTGYYRDYYGLDVWGQGTTLTVSS VL: not shown",101 pM,1.52 h,0.000128 s⁻¹,1.27e+06 M⁻¹ s⁻¹,324 pM,0.617 h,0.000309 s⁻¹,952000 M⁻¹ s⁻¹,2120 pM,0.1 h,0.00197 s⁻¹,928000 M⁻¹ s⁻¹,25.4 pM,7.95 h,2.42e-05 s⁻¹,953000 M⁻¹ s⁻¹,72.4 pM,3.37 h,5.72e-05 s⁻¹,790000 M⁻¹ s⁻¹,"Kd (hGCGR-mmh [6]): 431 pM; T½ (hGCGR-mmh [6]): 0.567 h; koff (hGCGR-mmh [6]): 0.000344 s⁻¹; kon (hGCGR-mmh [6]): 798000 M⁻¹ s⁻¹; IC50, inhibition of 100 pM GCG-stimulated luciferase activity, mfGCGR reporter cells [8]: 3.86 nM; IC50, inhibition of 100 pM GCG-stimulated luciferase activity, hGCGR reporter cells [9]: 2.22 nM; IC50, inhibition of 100 pM GCG-stimulated luciferase activity, rat GCGR reporter cells [10]: 8.07 nM"
"H4H1617N (antibody, V domains shown, Anti-GCGR antibody from hybridoma; the controls are called isotype-matched hIgG4) VH: QVQLVQSGADVKKPGASVKVSCKVSGHILTDLSMHWVRQAPGKGLEWMGGFDPEEGEIIYAQKFQGRVTMTEDTSTDTAYMELSSLRSGDTAVYYCATSDILTGYYRDYYGLDVWGQGTTLTVSS VL: not shown",58.6 pM,2.22 h,8.72e-05 s⁻¹,1.49e+06 M⁻¹ s⁻¹,181 pM,0.9 h,0.000214 s⁻¹,1.18e+06 M⁻¹ s⁻¹,943 pM,0.167 h,0.00113 s⁻¹,1.2e+06 M⁻¹ s⁻¹,11 pM,13.9 h,1.38e-05 s⁻¹,1.26e+06 M⁻¹ s⁻¹,38.9 pM,6.05 h,3.18e-05 s⁻¹,818000 M⁻¹ s⁻¹,"Kd (hGCGR-mmh [6]): 187 pM; T½ (hGCGR-mmh [6]): 0.967 h; koff (hGCGR-mmh [6]): 0.000199 s⁻¹; kon (hGCGR-mmh [6]): 1.07e+06 M⁻¹ s⁻¹; IC50, inhibition of 100 pM GCG-stimulated luciferase activity, mfGCGR reporter cells [8]: 4.24 nM; IC50, inhibition of 100 pM GCG-stimulated luciferase activity, hGCGR reporter cells [9]: 1.25 nM; IC50, inhibition of 100 pM GCG-stimulated luciferase activity, rat GCGR reporter cells [10]: 3.66 nM"

# The next lines start with results.
Kd (mfGCGR-hFc [1]),T½ (mfGCGR-hFc [1]),koff (mfGCGR-hFc [1]),kon (mfGCGR-hFc [1]),Kd (hGCGR-hFc [2]),T½ (hGCGR-hFc [2]),koff (hGCGR-hFc [2]),kon (hGCGR-hFc [2]),Kd (hGCGR-mmh [3]),T½ (hGCGR-mmh [3]),koff (hGCGR-mmh [3]),kon (hGCGR-mmh [3]),Kd (mfGCGR-hFc [4]),T½ (mfGCGR-hFc [4]),koff (mfGCGR-hFc [4]),kon (mfGCGR-hFc [4]),Kd (hGCGR-hFc [5]),T½ (hGCGR-hFc [5]),koff (hGCGR-hFc [5]),kon (hGCGR-hFc [5]),Binder,other results
25.7 pM,4.68 h,4.12e-05 s⁻¹,1.6e+06 M⁻¹ s⁻¹,77.9 pM,2.12 h,9.12e-05 s⁻¹,1.17e+06 M⁻¹ s⁻¹,533 pM,0.367 h,0.000519 s⁻¹,973000 M⁻¹ s⁻¹,6.9 pM,23.7 h,8.12e-06 s⁻¹,1.17e+06 M⁻¹ s⁻¹,20.2 pM,12.5 h,1.54e-05 s⁻¹,760000 M⁻¹ s⁻¹,"H4H1331P (antibody, V domains shown, Fully human anti-GCGR antibody; the controls are called isotype-matched hIgG4) VH: QVQLVESGGGVVQPGRSLRLSCAASGFTFSNFGMHWVRQAPGKGLEWVAVIWFDEIDKYYADSVKGRFTISRDNSKNTLYPQMNSLRAEDTAVYYCAREDYDILTGYYYAMDVWGQGTTVTVS VL: DIQMTQSPSSLSASVGDRVTITCRASQGIKNDLGWYQQKPGKAPKRLIYAASRLQSGVPSRFSGSGSGTEFTLTISSLQPEDFGTYYCLQHNSHPTFGQGTKVEIK","Kd (hGCGR-mmh [6]): 170 pM; T½ (hGCGR-mmh [6]): 1.73 h; koff (hGCGR-mmh [6]): 0.000111 s⁻¹; kon (hGCGR-mmh [6]): 657000 M⁻¹ s⁻¹; IC50, inhibition of 100 pM GCG-stimulated luciferase activity, mGCGR reporter cells [7]: 1.62 nM; IC50, inhibition of 100 pM GCG-stimulated luciferase activity, mfGCGR reporter cells [8]: 8.29 nM; IC50, inhibition of 100 pM GCG-stimulated luciferase activity, hGCGR reporter cells [9]: 0.66 nM; IC50, inhibition of 100 pM GCG-stimulated luciferase activity, rat GCGR reporter cells [10]: 3.87 nM"
16.4 pM,13 h,1.48e-05 s⁻¹,904000 M⁻¹ s⁻¹,53.7 pM,5.4 h,3.57e-05 s⁻¹,664000 M⁻¹ s⁻¹,252 pM,1.73 h,0.000111 s⁻¹,441000 M⁻¹ s⁻¹,≤ 1.56 pM,192 h,≤ 1e-06 s⁻¹,643000 M⁻¹ s⁻¹,12.2 pM,38.9 h,4.95e-06 s⁻¹,410000 M⁻¹ s⁻¹,"H4H1765N (antibody, V domains shown, Anti-GCGR antibody from hybridoma; the controls are called isotype-matched hIgG4) VH: EEQLVESGGDLVQPGGSLRLSCAASGFTLSSYEMNWVRQAPGKGLEWVSYISRGGSLIHYTDSVKGRFTISRDNAKNSLYLQMNSLRAEDTAVYYCVRDPAARYHYYYHGMDVWGQGTTVTVSS VL: DIVMTQSPLSLPVTPGEPASISCRSSQSLLHNNGYNYLDWYLQKPGQSPQLLIYLGSSRASGVPDRFSGSGSGTDFILKISRVEAEDVGVYYCMQALQTPWTFGRGTKVEIK","Kd (hGCGR-mmh [6]): 93 pM; T½ (hGCGR-mmh [6]): 6.32 h; koff (hGCGR-mmh [6]): 3.05e-05 s⁻¹; kon (hGCGR-mmh [6]): 326000 M⁻¹ s⁻¹; IC50, inhibition of 100 pM GCG-stimulated luciferase activity, mfGCGR reporter cells [8]: 75.2 nM; IC50, inhibition of 100 pM GCG-stimulated luciferase activity, hGCGR reporter cells [9]: 12.8 nM"
35.3 pM,2.68 h,7.17e-05 s⁻¹,2.03e+06 M⁻¹ s⁻¹,124 pM,1 h,0.000192 s⁻¹,1.55e+06 M⁻¹ s⁻¹,6670 pM,0.0167 h,0.0108 s⁻¹,1.61e+06 M⁻¹ s⁻¹,52.9 pM,2.28 h,8.46e-05 s⁻¹,1.6e+06 M⁻¹ s⁻¹,201 pM,0.85 h,0.000226 s⁻¹,1.13e+06 M⁻¹ s⁻¹,"H4H1328P (antibody, V domains shown, Fully human anti-GCGR antibody; the controls are called isotype-matched hIgG4) VH: EVQLVESGGALVQPGGSLRLSCTASGFTFSNYDMHWVRQTTGKGLEWISAIDTAGDTYYPGSVKGRFTVSRENAKNSFYLQMNSLRAGDTAVYYCAREGKYYDILTGDYHYYGMDVWGQGTTVTVS VL: DIQMTQSPSSLSASVGDRVTITCRASQGIRNDLGWYQQKPGKAPKRLIYATSSLQSGVPSRFSGSGSGTEFTLTISSLQPEDFATYYCLQHNSYPLTFGGGTKLEIK","Kd (hGCGR-mmh [6]): 2060 pM; T½ (hGCGR-mmh [6]): 0.0833 h; koff (hGCGR-mmh [6]): 0.00212 s⁻¹; kon (hGCGR-mmh [6]): 1.03e+06 M⁻¹ s⁻¹; IC50, inhibition of 100 pM GCG-stimulated luciferase activity, mGCGR reporter cells [7]: 1.26 nM; IC50, inhibition of 100 pM GCG-stimulated luciferase activity, mfGCGR reporter cells [8]: 2.73 nM; IC50, inhibition of 100 pM GCG-stimulated luciferase activity, hGCGR reporter cells [9]: 0.24 nM; IC50, inhibition of 100 pM GCG-stimulated luciferase activity, rat GCGR reporter cells [10]: 0.93 nM"
